# Source: paper doi:10.1101/2020.09.01.278846 (bioRxiv, 2020)
# B1: hs PCDH24 EC1-MAD10Fc (Fc fusion)
# chain: NVAPKFLANMTSVILPEDLPVGAQAFWLVAEDQDNDPLTYGMSGPNAYFFAVTPKTGEVKLASALDYETLYTFKVTISVSDPYIQVQREMLVIVEDRNDNAPVFQNTAFSTSINETLPVGSVVFSVLAVDKDMGSAGMVVYSIEKVIPSTGDSEHLFRILANGSIVLNGSLSYNNKSAFYQLELKACDLGGMYHNTFTIQCSLPVFLSISVVDQPDLDPQFVREFYSASVAEDAAKGTSVLTVEAVDGDKGINDPVIYSISYSTRPGWFDIGADGVIRVNGSLDREQLLEADEEVQLQVTATETHLNIYGQEAKVSIWVTVRVMDVNDHKPEFYNCSLPACTFTPEEAQVNFTGYVDEHASPRIPIDDLTMVVYDPDKGSNGTFLLSLGGPDAEAFSVSPERAVGSASVQVLVRVSALVDYERQTAMAVQVVATDSVSQNFSVAMVTIHLRDINDHRPTFPQSLYVLTVPEHSATGSVVTDSIHATDPDTGAWGQITYSLLPGNGADLFQVDPVSGTVTVRNGELLDRESQAVYYLTLQATDGGNLSSSTTLQIHLLDINDNAPVVSGSYNIFVQEEEGNVSVTIQAHDNDEPGTNNSRLLFNLLPGPYSHNFSLDPDTGLLRNLGPLDREAIDPALEGRIVLTVLVSDCGEPVLGTKVNVTITVEDINDNLPIFNQSSYNFTVKEEDPGVLVGVVKAWDADQTEANNRISFSLSGSGANYFMIRGLVLGAGWAEGYLRLPPDVSLDYETQPVFNLTVSAENPDPQGGETIVDVCVNVKDVNDNPPTLDVASLRGIRVAENGSQHGQVAVVVASDVDTSAQLEIQLVNILCTKAGVDVGSLCWGWFSVAANGSVYINQSKAIDYEACDLVTLVVRACDLATDPGFQAYSNNGSLLITIEDVNDNAPYFLPENKTFVIIPELVLPNREVASVRARDDDSGNNGVILFSILRVDFISKDGATIPFQGVFSIFTSSEADVFAGSIQPVTSLDSTLQGTYQVTVQARDRPSLGPFLEATTTLNLFTVDQSYRSRLQFSTPKEEVGANRQAINAALTQATRTTVYIVDIQDIDSAARARPHSYLDAYFVFPNGSALTLDELSVMIRNDQDSLTQLLQLGLVVLGSQESQESDLSKQLIS
# Biological target: the molecule itself
# Experiment: bead aggregation assay
protein,measurement,value
B1,binding result,binds
